Molecular target: [D-Ala^2,Leu^5]enkephalin

B1: recombinant human PEX protein (full-length, expressed from plasmid pPEX in COS-7 cells) (protein)
chain: MEAETGSSVETGKKANRGTRIALVVFVGGTLVLGTILFLVSQGLLSLQAKQEYCLKPECIEAAAAILSKVNLSVDPCDNFFRFACDGWISNNPIPEDMPSYGVYPWLRHNVDLKLKELLEKSISRRRDTEAIQKAKILYSSCMNEKAIEKADGKPLLHILRHSPFRWPVLESNIGPEGVWSERKFSLLQTLATFRGQYSNSVFIRLYVSPDDKASNEHILKLDQATLSLAVREDYLDNSTEAKSYRDALYKFMVDTAVLLGANSSRAEHDMKSVLRLEIKIAEIMIPHENRTSEAMYNKMNISELSAMIPQFDWLGYIKKVIDTRLYPHLKDISPSENVVVRVPQYFKDLFRILGSERKKTIDNYLVWRMVYSRIPNLSRRFQYRWLEFSRVIQGTTTLLPQRDKCVNFIESALPYVVGKMFVDVYFQEDKKEMMEELVEGVRWAFIDMLEKENEWMDAGTKRKAKEKARAVLAKVGYPEFIMNDTHVNEDLKAIKFSEADYFGNVLQTRKYLAQSDFFWLRKAVPKTEWFTNPTTVNAFYSASTNQIRFPAGELQKPFFWGTEYPRSLSYGAIGVIVGHEFTHGFDNNGRKYDKNGNLDPWWSTESEEKFKEKTKCMINQYSNYYWKKAGLNVKGKRTLGENIADNGGLREAFRAYRKWINDRRQGLEEPLLPGITFTNNQLFFLSYAHVRCNSYRPEAAREQVQIGAHSPPQFRVNGAISNFEEFQKAFNCPPNSTMNRGMDSCRLW
  production of Tyr-D-Ala-Gly from the substrate, HPLC: production of Tyr-D-Ala-Gly from the substrate was evident only in NEP-expressing membrane preparations

B2: recombinant human NEP (neprilysin, expressed from human NEP cDNA in COS-7 cells) (protein)
chain: MESQMDITDINTPKPKKKQRWTPLEISLSVLVLLLTIIAVTMIALYATYDDGICKSSDCIKSAARLIQNMDATTEPCTDFFKYACGGWLKRNVIPETSSRYGNFDILRDELEVVLKDVLQEPKTEDIVAVQKAKALYRSCINESAIDSRGGEPLLKLLPDIYGWPVATENWEQKYGASWTAEKAIAQLNSKYGKKVLINLFVGTDDKNSVNHVIHIDQPRLGLPSRDYYECTGIYKEACTAYVDFMISVARLIRQEERLPIDENQLALEMNKVMELEKEIANATAKPEDRNDPMLLYNKMTLAQIQNNFSLEINGKPFSWLNFTNEIMSTVNISITNEEDVVVYAPEYLTKLKPILTKYSARDLQNLMSWRFIMDLVSSLSRTYKESRNAFRKALYGTTSETATWRRCANYVNGNMENAVGRLYVEAAFAGESKHVVEDLIAQIREVFIQTLDDLTWMDAETKKRAEEKALAIKERIGYPDDIVSNDNKLNNEYLELNYKEDEYFENIIQNLKFSQSKQLKKLREKVDKDEWISGAAVVNAFYSSGRNQIVFPAGILQPPFFSAQQSNSLNYGGIGMVIGHEITHGFDDNGRNFNKDGDLVDWWTQQSASNFKEQSQCMVYQYGNFSWDLAGGQHLNGINTLGENIADNGGLGQAYRAYQNYIKKNGEEKLLPGLDLNHKQLFFLNFAQVWCGTYRPEYAVNSIKTDVHSPGNFRIIGTLQNSAEFSEAFHCRKNSYMNPEKKCRVW
  production of Tyr-D-Ala-Gly from the substrate, HPLC: production of Tyr-D-Ala-Gly from the substrate was evident only in NEP-expressing membrane preparations

From US20050113303
